Reference: US20260151519A1 (AKTIS ONCOLOGY, published 2026)
Bridges are numbered along the chain shown (N, C = ends). Primed or numbered codes have the meaning given here. Where no end group is shown, it is not given here. [ ]: non-standard residue; d: D form. The star is where a group is joined. DOTA = O=C(O)CN1CCN(CC(=O)O)CCN(CC(=O)*)CCN(CC(=O)O)CC1; Biotin = O=C1N[C@H]2[C@H](CS[C@H]2CCCCC(=O)*)N1; hydroxy‑norleucine = hydroxy-norleucine residue; Lys(Me3) = C[N+](C)(C)CCCC[C@H](N)C(=O)O; Arg(Me2s) = CN=C(NC)NCCC[C@H](N)C(=O)O; Cit = NC(=O)NCCC[C@H](N)C(=O)O; PEG4″ = 4(ethylene glycol); PEG4′ = not defined here

What was measured:
[1] = target: T1, Human Nectin-4 (human, UniProt Q96NY8 32-349, limits assumed); assay: Table 2B (DELFIA or SPR)
T1 construct: Protein immobilised on the SPR chip; also called target protein
T1 sequence: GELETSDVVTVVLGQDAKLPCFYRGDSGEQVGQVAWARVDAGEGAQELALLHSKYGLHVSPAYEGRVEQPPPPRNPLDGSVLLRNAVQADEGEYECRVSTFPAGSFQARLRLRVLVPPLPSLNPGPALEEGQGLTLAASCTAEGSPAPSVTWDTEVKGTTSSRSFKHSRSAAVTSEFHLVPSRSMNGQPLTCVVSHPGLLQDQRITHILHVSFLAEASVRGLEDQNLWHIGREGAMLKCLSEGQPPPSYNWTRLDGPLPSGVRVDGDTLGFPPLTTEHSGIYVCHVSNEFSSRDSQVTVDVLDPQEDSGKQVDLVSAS

[2] = target: T1, Human Nectin-4; assay: SPR, Biacore T200, target immobilised, 1:1 model
Protocol: Surface plasmon resonance (SPR) analyses were performed using Biacore T200 (GE Healthcare). Target protein (“ligand”) was immobilized to a CM5 Series S sensor chip (Cytiva) using amine-coupling chemistry. Running buffer was 0.05% surfactant P20 in HEPES buffered saline (HBS-P), pH 7.4 (Cytiva). Immobilization was performed at 25° C. Carboxyl groups in each flow cell were activated using a 1:1 mixture of 0.4 M 1-ethyl-3-(3-dimethylaminopropyl)-carbodiimide in water (EDC) and 0.1 M N-hydroxysuccinimide in water (NHS) for 7 minutes. The ligand was prepared in 10 mM sodium acetate pH 5 (Cytiva). Pulsatile injections were made to target a specific immobilization level. Any remaining amine-reactive esters on the chip surface were blocked with a 7-minute injection of 1 M ethanolamine, pH 8.5. Three 10-second pulses of 50 mM sodium hydroxide were then made to remove any unbound ligand. Reference cells were modified using amine coupling chemistry, omitting ligand injection.
Increase in signal (RU) is proportional to an increase in binding events between the analyte and ligand surface. The injection was then stopped, and dissociation was measured. […] Measured association (kₐ, 1/Ms⁻¹) and dissociation (kd, s⁻¹) were fit to a 1:1 binding model to calculate a dissociation equilibrium constant, KD(M) for each analyte.

[3] = target: T2, Human Nectin-4 expressed on cells (human, UniProt Q96NY8 32-510); assay: radioligand binding, 177Lu-labelled compound, HT-1376 cells
T2 construct: Endogenous on HT-1376 cells; also called endogenous Nectin-4 on HT-1376 cells; cell surface Nectin-4
T2 sequence: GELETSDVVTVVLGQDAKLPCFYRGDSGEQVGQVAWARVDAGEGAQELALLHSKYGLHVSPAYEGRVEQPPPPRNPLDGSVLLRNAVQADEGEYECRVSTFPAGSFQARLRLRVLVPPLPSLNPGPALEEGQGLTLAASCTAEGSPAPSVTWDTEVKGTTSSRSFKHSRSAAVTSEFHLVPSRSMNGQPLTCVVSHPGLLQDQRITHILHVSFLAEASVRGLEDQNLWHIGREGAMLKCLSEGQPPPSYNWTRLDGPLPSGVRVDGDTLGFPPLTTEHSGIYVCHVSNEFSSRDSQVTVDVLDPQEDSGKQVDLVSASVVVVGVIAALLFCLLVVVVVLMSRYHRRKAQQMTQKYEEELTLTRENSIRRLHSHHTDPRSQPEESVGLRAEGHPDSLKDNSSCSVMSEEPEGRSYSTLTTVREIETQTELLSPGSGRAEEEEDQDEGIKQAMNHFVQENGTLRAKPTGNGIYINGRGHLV
Protocol: On the day of assay, culture medium was removed and PBS was added to cells. Association kinetics were measured at three concentrations of radioligand, and this was performed by the addition of lutetium-177 radioconjugates to cells at various time points from 1 to 60 minutes.

[4] = target: T2, Human Nectin-4 expressed on cells; assay: DELFIA whole-cell competition against a europium-chelate miniprotein
Protocol: A whole cell binding assay was used to estimate the equilibrium binding affinity (KD) or binding inhibition constant (Kᵢ) of miniprotein ligands to cells expressing a target of interest. Cells were dispensed into a 384-well plate and incubated at 37° C. in 5% CO₂ overnight. The next day cells were gently washed once in assay buffer prior to addition of europium chelated ligand. […] For Kᵢ determination, a single concentration (KD equivalent concentration) of europium-chelate miniprotein was added to each well followed immediately by the addition of unconjugated competing ligand over 12 different concentrations ranging from 100 times below and above expected Kᵢ values as before. […] Cells were then washed three times at room temperature with 1×PBS followed by the addition of 2 M HCl and incubated for two h at 37° C. Following this step, 2 M NaOH and fluorescent inducer solution were added to each well and incubated for 30 minutes at room temperature according to the manufacturer's protocol (Perkin-ELMER DELFIA assay). Plates were read on an Envision plate reader and a curve-fitting model was applied to estimate KD and Kᵢ values using GraphPad Prism software.

B1: C103 (designed binder)
chain: {Biotin-PEG4″}-CEYDEQFFTALKRLRGGDICYYISAQFNTLPDLCIEEILENLGC-OH
modifications: disulfide 1-34, 20-44
- Kd [1]: 6.6 nM

B2: C104 (designed binder)
chain: Ac-CEYDEEFFTALKKLRGGDICYYIQQAFNYLPGICIEEILDNLGC-OH
modifications: disulfide 1-34, 20-44
- Kd [1]: 3.7 nM

B3: C132 (designed binder)
chain: Ac-CEYDEEFFTALSRLRGGDICYYIQQAFQYLPGLCIEEILDNLGC-NH2
modifications: disulfide 1-34, 20-44
- Kd [1]: 30.1 nM

B4: C143 (designed binder)
chain: {Biotin-PEG4″}-CEYDEEFFTALARLRGDDICSYIQAKFQYLPGLCIEEILDNLGCS-OH
modifications: disulfide 1-34, 20-44
- Kd [1]: 0.55 nM
- Kd [2]: 0.238 nM

B5: C185 (designed binder)
chain: {Biotin-PEG4″}-CEYDEQFFTALKRLRGADICSYIQASFQYLPGLCIEEILDNLGCS
modifications: disulfide 1-34, 20-44
- Kd [1]: 1 nM
- Kd [2]: 0.371 nM

B6: C149 (designed binder)
chain: {Biotin-PEG4″}-CEYDEEFFTALARLRGGDICQYIQAKFQYLPGQCIEEILDNLGCS
modifications: disulfide 1-34, 20-44
- Kd [1]: 0.75 nM
- Kd [2]: 0.297 nM

B7: C139 (designed binder)
chain: {Biotin-PEG4″}-CEYDEQFFTALSSLRGGDICYYIQEQFANVPGICIEEILDNLGCS
modifications: disulfide 1-34, 20-44
- Kd [1]: 25.2 nM

B8: C128 (designed binder)
chain: Ac-CEYDEQFFTALARLRGGDICYYIQEQFATVPGLCIEEILDQLGC-NH2
modifications: disulfide 1-34, 20-44
- Kd [1]: 10.1 nM

B9: C170 (designed binder)
chain: {Biotin-PEG4″}-CEYDEEFFTALA[Cit]LRGDDICSYIQA[hydroxy‑norleucine]FQYLPGLCIEEILDNLGCS-OH
modifications: disulfide 1-34, 20-44
- Kd [1]: 8.8 nM

B10: C112 (designed binder)
chain: Ac-CEYDEQFFTALKALRGGDICYYIQASFNYLPDLCIEEILDNLGC-NH2
modifications: disulfide 1-34, 20-44
- Kd [1]: 6.24 nM

B11: C109 (designed binder)
chain: {DOTA-PEG4″}-CEYDEEFFTALKRLRGGDICYYIQASFQYLPGLCIEEILDNLGCS
modifications: disulfide 1-34, 20-44; also: 177Lu-labelled in radioligand assay
- Kd [3]: 8.72 nM

B12: C117 (designed binder)
chain: {DOTA-PEG4″}-CEYDEEFFTALKRLRGGDICYYIQAKFQYLPKLCIEEILDNLGCS
modifications: disulfide 1-34, 20-44; also: 177Lu-labelled in the radioligand assay
- Kd [3]: 2.64 nM

B13: C280 (designed binder)
chain: {Biotin-PEG4″}-CEYDEQFFTALARLRGADICEYIQARFQYLPGLCIEEILDNLGCS-OH
modifications: disulfide 1-34, 20-44
- Ki [4]: 0.54 nM

B14: C262 (designed binder)
chain: {Biotin-PEG4″}-CEYDEQFFTALARLRGADICEYIQA[Lys(Me3)]FQYLPGLCIEEILDNLGCS-OH
modifications: disulfide 1-34, 20-44
- Ki [4]: 1.04 nM

B15: C264 (designed binder)
chain: {Biotin-PEG4″}-CEYDEQFFTALARLRGGDICEYIQARFQYLPGLCIEEILDNLGCS
modifications: disulfide 1-34, 20-44
- Kd [2]: 0.476 nM
- Ki [4]: 0.53 nM

B16: C252 (designed binder)
chain: {Biotin-PEG4″}-CEYDEEFFTALARLRGADICQYIQA[Lys(Me3)]FQYLPALCIEEILDNLGCS-OH
modifications: disulfide 1-34, 20-44
- Ki [4]: 0.76 nM

B17: C255 (designed binder)
chain: {Biotin-PEG4″}-CDYDEQFFTALKRLRGGDICEYIQA[Lys(Me3)]FQYLPGECIEEILDNLGCS-OH
modifications: disulfide 1-34, 20-44
- Ki [4]: 0.66 nM

B18: C267 (designed binder)
chain: {Biotin-PEG4″}-CEYDEQFFTALARLRGGDICEYIQA[Arg(Me2s)]FQYLPGLCIEEILDNLGCS
modifications: disulfide 1-34, 20-44
- Kd [2]: 0.586 nM
- Ki [4]: 0.76 nM

B19: C257 (designed binder)
chain: {Biotin-PEG4″}-CDYDEQFFTALKRLRGADICEYIQA[Lys(Me3)]FQYLPGECIEEILDNLGCS-OH
modifications: disulfide 1-34, 20-44
- Ki [4]: 0.66 nM

B20: C107 (designed binder)
chain: {Biotin-PEG4″}-CEYDEEFFTALKKLRGGDICYYIQQAFNYLPGICIEEILDNLGC
modifications: disulfide 1-34, 20-44
- Kd [1]: 3.38 nM

B21: C100 (designed binder)
chain: Ac-CEYDEQFFTALKRLRGGDICYYISAQFNTLPDLCIEEILENLGC-OH
modifications: disulfide 1-34, 20-44
- Kd [1]: 4.8 nM

B22: C131 (designed binder)
chain: {Biotin-PEG4″}-CEYDEQFFTALARLRGGDICYYIQEQFATVPGLCIEEILDQLGCS-OH
modifications: disulfide 1-34, 20-44
- Kd [1]: 12.4 nM

B23: C173 (designed binder)
chain: {Biotin-PEG4″}-CEYDEEFFTALARLRGGDICYYIQA[hydroxy‑norleucine]FQYLPGLCIEEILDNLGCS-OH
modifications: disulfide 1-34, 20-44
- Kd [1]: 5 nM

B24: C259 (designed binder)
chain: {Biotin-PEG4″}-CDYDEQFFTALA[Cit]LRGGDICEYIQA[Lys(Me3)]FQYLPGLCIEEILDNLGCS-OH
modifications: disulfide 1-34, 20-44
- Kd [2]: 0.226 nM

B25: C136 (designed binder)
chain: Ac-CEYDEQFFTALSSLRGGDICYYIQEQFANVPGICIEEILDNLGC
modifications: disulfide 1-34, 20-44
- Kd [1]: 36.5 nM

B26: C215 (designed binder)
chain: {DOTA-PEG4′}-CEYDEEFFTALKRLRGGDICYYIKKKFKKVPKLCIEEILDKLGC-NH2
modifications: cysteine pairing not given here; also: 177Lu label on DOTA
- Kd [3]: 5.01 nM

B27: C214 (designed binder)
chain: {DOTA-PEG4″}-CEYDEEFFTALKRLRGGDICYYIKKKFDYLPKLCIEEILDNLGC-NH2
modifications: disulfide 1-34, 20-44; also: 177Lu-labelled in the radioligand assay
- Kd [3]: 3.03 nM
